The values below come from the RNAGym collection of RNA variant scans (doi:10.1073/pnas.2313332121).

To fix the notation:
B1: TPR 5TU (parent)
chain: GGAUCUUCUCGAUCUAACAAAAAAGACAAAUCUGCCACAAAGCUUGAGAGCAUCUUCGGAUGCAGAGGCGGCAGCCUUCGGUGGCGCGAUAGCGCCAACGUUCUCAACUAUGACACGCAAAACGCGUGCUCCGUUGAAUGGAGUUUAUCAUG

Variants at the floor of the assay were thinned out.

This series covers variants of B1. The series is described as follows: polymerase ribozyme fitness, log enrichment relative to wild type (log ratio); higher = more active; in vitro selection for triplet polymerase activity. Summed up: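 Libraries of mutants in each subunit of a heterodimeric triplet polymerase ribozyme were generated by PCR and transcribed. In triplicate, each went through one in vitro selection round: annealing with biotinylated primer, partner subunit and triplets; frozen incubation at −7 °C; gel excision of extended constructs; streptavidin-bead capture; RT-PCR. Fitness, taken from Illumina sequencing of input and output libraries, is the logarithm of a genotype's enrichment over wild-type enrichment, averaged across replicates with inverse-variance weights. The logarithm is base 2, and genotypes needed ≥10 input reads and ≥1 read per output to be kept.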
For A119U A137U, the “polymerase ribozyme fitness (log ratio)” value was -4.12.

On to G128U U144C, for which the “polymerase ribozyme fitness (log ratio)” value is -3.96.

Turning to C129U, the “polymerase ribozyme fitness (log ratio)” value was -0.0537.

C129A: the “polymerase ribozyme fitness (log ratio)” value is -2.46.

Turning to C129G, the “polymerase ribozyme fitness (log ratio)” value was -2.45.

For the variant A138U U151C, the “polymerase ribozyme fitness (log ratio)” value was -4.01.

With U135A A147U, the “polymerase ribozyme fitness (log ratio)” value is -0.75.

As to C116U U144A, the “polymerase ribozyme fitness (log ratio)” value was -0.259.

As for C118G A122C G141C, the “polymerase ribozyme fitness (log ratio)” value is -2.43.

In the case of G117U A137G, the “polymerase ribozyme fitness (log ratio)” value is -1.34.

In the case of G124U G143U U148G, the “polymerase ribozyme fitness (log ratio)” value is at most -4.2.

As to G124C C132A, the “polymerase ribozyme fitness (log ratio)” value was -2.4.

As to A122G G124A U127A, the “polymerase ribozyme fitness (log ratio)” value was -3.53.

In the case of C116A, the “polymerase ribozyme fitness (log ratio)” value worked out at 1.34.

With C116U, the “polymerase ribozyme fitness (log ratio)” value was 0.103.

C116G: the “polymerase ribozyme fitness (log ratio)” value amounted to 0.655.

On to G128U A142C, for which the “polymerase ribozyme fitness (log ratio)” value is -3.6.

For the variant A121U C125U G143C U146C, the “polymerase ribozyme fitness (log ratio)” value was -3.38.

Take G124U A142C: the “polymerase ribozyme fitness (log ratio)” value is -1.75.

Take C129G U134G: the “polymerase ribozyme fitness (log ratio)” value is -3.81.

For A120G A137C, the “polymerase ribozyme fitness (log ratio)” value is -4.08.

As for C132G, the “polymerase ribozyme fitness (log ratio)” value was -3.15.

On to C132A, for which the “polymerase ribozyme fitness (log ratio)” value is -2.06.

In the case of C132U, the “polymerase ribozyme fitness (log ratio)” value is -0.687.

Regarding A115U G141C, the “polymerase ribozyme fitness (log ratio)” value was -3.37.

With C118G U144A, the “polymerase ribozyme fitness (log ratio)” value was -0.0459.

Regarding C116G G140C, the “polymerase ribozyme fitness (log ratio)” value was -3.81.

In the case of G128C A150U, the “polymerase ribozyme fitness (log ratio)” value is -4.

Take C116U A121U G124U: the “polymerase ribozyme fitness (log ratio)” value is -2.02.

In the case of C125U A150U, the “polymerase ribozyme fitness (log ratio)” value is -0.413.

Turning to A137C, the “polymerase ribozyme fitness (log ratio)” value is -3.09.

With A137G, the “polymerase ribozyme fitness (log ratio)” value was -1.15.

A137U: the “polymerase ribozyme fitness (log ratio)” value was -3.39.

Consider C118G A119G, for which the “polymerase ribozyme fitness (log ratio)” value stood at 0.312.

Turning to G124C A142U, the “polymerase ribozyme fitness (log ratio)” value is -0.985.

Take U139A U144A: the “polymerase ribozyme fitness (log ratio)” value is -4.15.

With A119U U127C, the “polymerase ribozyme fitness (log ratio)” value was -2.06.

A137U U148G: the “polymerase ribozyme fitness (log ratio)” value was at most -4.2.

Regarding G126C A150G, the “polymerase ribozyme fitness (log ratio)” value is -2.81.

For A122U U135C A137G, the “polymerase ribozyme fitness (log ratio)” value was -3.91.

For the variant C131A, the “polymerase ribozyme fitness (log ratio)” value is -1.77.

For C131U, the “polymerase ribozyme fitness (log ratio)” value was 1.18.

C131G: the “polymerase ribozyme fitness (log ratio)” value was -2.79.

For U127G A138G A142C, the “polymerase ribozyme fitness (log ratio)” value is -3.48.

With A115G G124A A150G, the “polymerase ribozyme fitness (log ratio)” value was -4.

On to A120G G141A, for which the “polymerase ribozyme fitness (log ratio)” value came to 1.23.

In the case of A120U A121U U144G C149G, the “polymerase ribozyme fitness (log ratio)” value was -3.46.

Regarding G140U, the “polymerase ribozyme fitness (log ratio)” value was -2.62.

On to G140C, for which the “polymerase ribozyme fitness (log ratio)” value was -3.16.

Consider G140A, for which the “polymerase ribozyme fitness (log ratio)” value is -2.67.

With U139C U144A, the “polymerase ribozyme fitness (log ratio)” value is -3.36.

For C116U C125U U146C, the “polymerase ribozyme fitness (log ratio)” value is -0.74.

On to G140U A147U, for which the “polymerase ribozyme fitness (log ratio)” value was -2.9.

For the variant A138C U139A, the “polymerase ribozyme fitness (log ratio)” value was -3.78.

Regarding A119G, the “polymerase ribozyme fitness (log ratio)” value was -0.045.

Regarding A119C, the “polymerase ribozyme fitness (log ratio)” value was -0.385.

Take A119U: the “polymerase ribozyme fitness (log ratio)” value is -0.546.

As to A121G U134G, the “polymerase ribozyme fitness (log ratio)” value is -2.56.

In the case of C129A G143A A150G, the “polymerase ribozyme fitness (log ratio)” value is -3.66.

Turning to A142G A147U, the “polymerase ribozyme fitness (log ratio)” value is -0.49.

Turning to A115U A119G A138G, the “polymerase ribozyme fitness (log ratio)” value was at most -4.2.

With C123A G140A, the “polymerase ribozyme fitness (log ratio)” value is -3.65.

U134A U148G: the “polymerase ribozyme fitness (log ratio)” value was at most -4.2.

As to G141C, the “polymerase ribozyme fitness (log ratio)” value is -0.0848.

Consider G141A, for which the “polymerase ribozyme fitness (log ratio)” value was 0.689.

Regarding G141U, the “polymerase ribozyme fitness (log ratio)” value amounted to 1.61.

A122G G133U: the “polymerase ribozyme fitness (log ratio)” value was -3.59.

For the variant C116G A120U, the “polymerase ribozyme fitness (log ratio)” value is 0.554.

Take U145G U151G: the “polymerase ribozyme fitness (log ratio)” value was -4.07.

As to C118A U144A, the “polymerase ribozyme fitness (log ratio)” value was 0.0258.

Regarding A120U A137C A138U, the “polymerase ribozyme fitness (log ratio)” value was -4.19.

As for A115U U148G, the “polymerase ribozyme fitness (log ratio)” value is -4.15.

Take G126A A150G: the “polymerase ribozyme fitness (log ratio)” value is -2.66.

On to C116U G124A A142G, for which the “polymerase ribozyme fitness (log ratio)” value is -2.45.

For the variant C149A, the “polymerase ribozyme fitness (log ratio)” value is -3.33.

Take C149G: the “polymerase ribozyme fitness (log ratio)” value was -2.78.

With C149U, the “polymerase ribozyme fitness (log ratio)” value was -0.847.

Take C132U U135A: the “polymerase ribozyme fitness (log ratio)” value was -2.46.

G141C A150G: the “polymerase ribozyme fitness (log ratio)” value was -3.78.

As for C129A U148G, the “polymerase ribozyme fitness (log ratio)” value is -4.11.

Consider G141A C149G, for which the “polymerase ribozyme fitness (log ratio)” value is -4.13.

In the case of A142G U146C, the “polymerase ribozyme fitness (log ratio)” value is -3.25.

Consider U144G U145A, for which the “polymerase ribozyme fitness (log ratio)” value was determined as 0.571.

For C116U U130C, the “polymerase ribozyme fitness (log ratio)” value was 1.13.

Turning to C118G A119U G141U, the “polymerase ribozyme fitness (log ratio)” value is -0.349.

Regarding G133A G141U, the “polymerase ribozyme fitness (log ratio)” value is -3.08.

On to A115G U135A, for which the “polymerase ribozyme fitness (log ratio)” value is -2.48.

As for U148G U151A, the “polymerase ribozyme fitness (log ratio)” value is -3.95.

A120C C125G G133U: the “polymerase ribozyme fitness (log ratio)” value is -3.85.

On to C118G C129U, for which the “polymerase ribozyme fitness (log ratio)” value was -1.77.

On to G141U A142C, for which the “polymerase ribozyme fitness (log ratio)” value is -3.58.

With U139G U148A, the “polymerase ribozyme fitness (log ratio)” value is -2.73.

Regarding U135G A137U, the “polymerase ribozyme fitness (log ratio)” value is -4.04.

Regarding A137G U145G, the “polymerase ribozyme fitness (log ratio)” value is -1.02.

As to C118A A119U, the “polymerase ribozyme fitness (log ratio)” value is -0.617.

With A121U U145C, the “polymerase ribozyme fitness (log ratio)” value was 1.15.

A115C G133U: the “polymerase ribozyme fitness (log ratio)” value is -3.74.

On to C116U A119U U135C, for which the “polymerase ribozyme fitness (log ratio)” value was -2.59.

As for A121U C132U U146A, the “polymerase ribozyme fitness (log ratio)” value was -0.968.

For A119C G143A, the “polymerase ribozyme fitness (log ratio)” value was -0.422.

Consider U135A C149U, for which the “polymerase ribozyme fitness (log ratio)” value was -0.66.

With C116A U151C, the “polymerase ribozyme fitness (log ratio)” value was -4.09.

As to G117A U144C, the “polymerase ribozyme fitness (log ratio)” value was -2.9.

As to U144C A150C, the “polymerase ribozyme fitness (log ratio)” value was -4.19.

Consider G143C U145G, for which the “polymerase ribozyme fitness (log ratio)” value was -1.8.

As for C131G G133C G136U G141U, the “polymerase ribozyme fitness (log ratio)” value was -3.43.

On to A122G C125A U134G, for which the “polymerase ribozyme fitness (log ratio)” value was -2.92.

As to G126A C132U A142C, the “polymerase ribozyme fitness (log ratio)” value was at most -4.2.

In the case of G133A U134G, the “polymerase ribozyme fitness (log ratio)” value was -2.81.

As to G117U G143U, the “polymerase ribozyme fitness (log ratio)” value was -2.57.

On to G126A C132G, for which the “polymerase ribozyme fitness (log ratio)” value was -2.68.

In the case of C131G A137U, the “polymerase ribozyme fitness (log ratio)” value was -4.16.

U127G A137U: the “polymerase ribozyme fitness (log ratio)” value is -4.19.

Regarding C123U A142U, the “polymerase ribozyme fitness (log ratio)” value is -1.13.

Turning to G128A G133A U134C A150G, the “polymerase ribozyme fitness (log ratio)” value was -3.52.

G124A C125G: the “polymerase ribozyme fitness (log ratio)” value was 0.356.

Consider A122U C149U, for which the “polymerase ribozyme fitness (log ratio)” value is -0.616.

For the variant C132U G152U, the “polymerase ribozyme fitness (log ratio)” value was -2.75.

Regarding U134A A137G, the “polymerase ribozyme fitness (log ratio)” value was -3.22.

For the variant A115C A142G A150U, the “polymerase ribozyme fitness (log ratio)” value is -3.13.

Consider U139A G143U U146G, for which the “polymerase ribozyme fitness (log ratio)” value is -3.74.

In the case of C123U G124A U144C, the “polymerase ribozyme fitness (log ratio)” value was 0.0575.

As for G143A U151G, the “polymerase ribozyme fitness (log ratio)” value is at most -4.2.

For the variant G117A A142U, the “polymerase ribozyme fitness (log ratio)” value was -4.13.

Regarding A119G U146A, the “polymerase ribozyme fitness (log ratio)” value was -0.399.

With A150C G152A, the “polymerase ribozyme fitness (log ratio)” value was -3.

With A122C C149U, the “polymerase ribozyme fitness (log ratio)” value was -1.16.

For A137G U144A, the “polymerase ribozyme fitness (log ratio)” value was -3.01.

On to A150U, for which the “polymerase ribozyme fitness (log ratio)” value is 1.3.

For A150G, the “polymerase ribozyme fitness (log ratio)” value was -0.734.

On to A150C, for which the “polymerase ribozyme fitness (log ratio)” value is -2.71.
